Assay results reported in paper PMC9040744 (mBio, 2022).

Molecular target: JUNV GP1 (Junín virus GP1 glycoprotein, residues 87 to 232) (Junín virus (JUNV), strain XJ13 …, UniProt C1K9J9)
Test: crystal structure
Details: both partners purified

B1: Fab fragment of NAb JUN1 (Fab, V domains shown)
VH: LVQSVETGGGLVRPGNSLKLSCVTSGFTFSNYQMHWLRQPPGKRLEWIAVITVKSDNYGANYVESVKGRFAISRDDSKSSVYLEMNRLREEDTATYFCSRSGIYDGYYAYAMDYWGQGTSVTVSS
VL: SVVMTQSQKFMSTSVGDRVSITCKASQIVGTSVAWYQQKAGQSPKLLIYWASTRHTGVPDRFTAGGSGTDFTLTITNVQSEDLADYFCQQYATYPLTFGSGTKLELK
notes: also called Fab JUN1; JUN1 Fab; source: HEK293T, heavy and light chains coexpressed, purified
B1: binds.
